Data set [1] concerns the target T1, recombinant His-tagged Der p1 (dust mite, UniProt P08176 99-320, limits assumed).
T1 construct: Recombinant His-tagged protein made by the applicant; also called Der p1-His; Der pl; not shown: His tag
T1 sequence (looked up): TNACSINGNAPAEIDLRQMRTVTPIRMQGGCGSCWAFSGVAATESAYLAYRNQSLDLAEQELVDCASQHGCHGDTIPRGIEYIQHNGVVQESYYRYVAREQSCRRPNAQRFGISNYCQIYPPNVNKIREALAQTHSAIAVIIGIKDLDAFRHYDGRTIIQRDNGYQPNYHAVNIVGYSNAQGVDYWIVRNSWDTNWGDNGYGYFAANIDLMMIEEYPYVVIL
As to the kind of experiment: ELISA, antigen coated on plate. How it is done: (§1) 2 microgram per milliliter (μg/mL) target antigen is coated in a 96-well plate and ELISA assay is performed after incubation with candidate VHHs. The binding EC50 of each clone is calculated using Prism GraphPad. The positive control antibody is involved as an internal control.
Isolated VHH clones were further validated by performing an ELISA assay as described in Example 1. The individual binding curves are shown for each candidate in FIGS. 9A-9K.

In data set [2] the target is T2, recombinant His-tagged Can f2 (dog (Canis familiaris), UniProt O18874 19-180).
T2 construct: also called Can f2-His; recombinant Can f2; not shown: His tag
T2 sequence (looked up): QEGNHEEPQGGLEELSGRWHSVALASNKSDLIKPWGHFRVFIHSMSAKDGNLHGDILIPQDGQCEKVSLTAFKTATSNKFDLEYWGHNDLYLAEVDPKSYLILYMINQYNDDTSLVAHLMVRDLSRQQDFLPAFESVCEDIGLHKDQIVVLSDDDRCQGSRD
The experiment in a line: ELISA, antigen coated. How it is done: as §1
(§2) Isolated VHH clones were further validated by performing an ELISA assay as described in Example 1. Metrics of thermostability including melting temperature (Tₘ), onset temperature (Tₒₙₛₑₜ), and temperature of aggregation (Tagg), were also tested with increasing temperature in the range of 20° C.-95° C. at the speed of 1° C./min. The individual binding curves are shown for each candidate in FIGS. 7B-7P.

Data set [3] is described as follows: Thermostability (Tm, Tonset, Tagg) by Nanotemper DSF. In kind it is physicochemical. The arrangement: key to Tm2 / Tagg / Tm1 / Tm / Tm3 / Tonset / Tonset ø (mean) / Tagg ø (mean): temperatures in °C. As to conditions: for Tm: single melting point; for Tm1: first melting point; for Tm2: second melting point; for Tm3: third melting point. Here is the method: as §2, with “(Tm),” for “(Tₘ),”, “(Tonset),” for “(Tₒₙₛₑₜ),”, “C./min. These measurements were performed using a Nanotemper DSF. When applicable, Tm1 refers to the first melting point observed, Tm2 refers to the second melting point observed, etc., Sequence information for the VHH clones and the binding assay results are summarized in Table 3.” for “C./min.”, “3B-3I.” for “7B-7P.”
Isolated VHH clones were further validated by performing an ELISA assay as described in Example 1. Metrics of thermostability including melting temperature (Tm), onset temperature (Tonset), and temperature of aggregation (Tagg), were also tested with increasing temperature in the range of 20° C.-95° C. at the speed of 1° C./min. The individual binding curves are shown for each candidate in FIGS. 5B-5H.
Isolated VHH clones were further validated by performing an ELISA assay as described in Example 1. Metrics of thermostability including melting temperature (Tm), onset temperature (Tonset), and temperature of aggregation (Tagg), were also tested with increasing temperature in the range of 20° C.-95° C. at the speed of 1° C./min. The individual binding curves are shown for each candidate in FIGS. 7B-7P.
The detailed thermostability graphs used to determine the Tm, Tonset, and Tagg are illustrated in FIGS. 19A-19I and raw data is summarized in Table 23. Any subsequent melting points observed (Tm1, Tm2, Tm3, etc.) are separated by commas.

The mark [4] stands for this setting: anti-Can f2 VHH, 20° C.-95° C. at 1° C./min.
The mark [5] stands for this setting: anti-Can f2 VHH, in °C (unit assumed).
Where [6] appears, read: Average of two replicates, anti-Fel d1 VHH.

B1: SDAB22129-55-35-46-49-1-D04 (VHH)
VHH: QLQLVESGGGLVQPGGSLRLSCVISGGTFHPYPIGWFREAPGKEREGVLCINSGGQSEISANSAHDPKYADSVKGRFTISRDNAANTVYLQMNNLEPGDTAVYYCAAPREIYVDPYCPTYAYEYWGQGTQVTVSA
With B1, in data set [1], the EC50 is 0.0621 µg/mL.

B2: SDAB22118-1-B11 (VHH)
VHH: AVQLVESGGGLVQPGGSLRLSCAASGFTFSNYYMSWYRQAPGKEREWVAFITSTGSSTNYANSVKGRFTASRDNAKNTVYLQMNSLKPEDTAVYYCKTRLWGNDYWGKGTLVTVSS
notes: anti-Can f2 alpaca VHH; prokaryotic expression
For the molecule B2, the EC50 in data set [2] amounted to 0.164 µg/mL. In data set [3] (setting [4]), this molecule displayed a Tagg of 44.54. Also, in data set [3] (setting [5]), the Tm is on record as 55.17.

B3: SDAB22118-3-G05 (VHH)
VHH: AVQLVESGGGLVQAGGSLRLSCAASGRTFNNSVMGWFRQAPGKEREFVAAISRSGAFAHYAESVEGRFTISRDNAKNTVYLQMNSLKPEDTAVYYCAAGAILLPTERRYDYWGQGTQVTVSS
notes: as for B2
With B3, in data set [2], the EC50 came to 0.149 µg/mL.

B4: SDAB22118-1-F04 (VHH)
VHH: QVQLVESGGGLVQPGGSLRLSCAYSGFTLDNNVIGWFRQAPGKEREFVAAISRSGAFTHYTESVQGRFTISRDNAKNTVYLQMNSLKPEDTAVYYCAAGAILLPTERRYDYWGQGTQVTVSS
notes: as for B2
As for B4, in data set [2], the EC50 came out at 0.0639 µg/mL. The Tagg in data set [3] (setting [4]) worked out at 48.08. Besides, the Tm in data set [3] (setting [5]) came to 58.63.

B5: SDAB22118-1-D05 (VHH)
VHH: QVQLVESGGGLVQAGGSLGLSCAASGRTFNNYVMGWFRQAPGKEREFVAAISRSGSFTHYAEAVQGRFTISRDNAKITVYLQMNSLKPEDTAVYYCAAGAILMPTERTYDYWGQGTQVTVSS
notes: as for B2
As to B5, the EC50 in data set [2] is 0.0762 µg/mL. In data set [3] (setting [4]), this molecule showed a Tagg of 39.54. In addition, in data set [3] (setting [5]), the Tm1 stood at 48.35, the Tm2 is reported as 58.58 and the Tm3 is given as 64.58.

B6: SDAB22118-3-F08 (VHH)
VHH: QVQLVESGGGLVQPGESLRLSCAASGSIFSIYRMGWYRQAPGEQREHVATVTSGGGTGYADSVKGRFTIYRDNAKNTVYLQMNSLKPEDTAVYSCYAIPKSWSRTSEYSWGQGTQVTVSS
notes: as for B2
B6: the 50% effective concentration (EC50) in data set [2] was 0.0595 µg/mL.

B7: SDAB22118-1-D08 (VHH)
VHH: EVQLVESGGGLVQPGGSLRLSCVVSGSIFSDNAMGWYRQAPGKQREMVAIISSVGTTNNVDSVNGRFTISRDNAKNTVYLQMNSLKPEDTAVYYCKDFSAPRYWGQGTQVTVSS
notes: as for B2
B7: the EC50 in data set [2] amounted to 0.0486 µg/mL. In data set [3] (setting [4]), the Tagg turned out to be 40.82. Moreover, in data set [3] (setting [5]), the Tm1 came to 38.89, the Tm2 was found to be 43.62 and the Tm3 came out at 54.69.

B8: SDAB22129-55-35-46-49-1-G09 (VHH)
VHH: QVKLEESGGGAVQPGGSLRLSCTASGQTFSNYIISWFRQAPGKEREFVVGISKSGGRTYYADSAKGRFTISRDNAKNTVYLQMSSLKPEDTAVYYCAADGLVLTAAAAEYDYWGQGTQVTVSS
notes: Expressed from a prokaryotic vector
For B8, in data set [1], the concentration giving a half-maximal response (EC50) was 0.154 µg/mL.

B9: SDAB22129-55-35-46-49-1-A04 (VHH)
VHH: QLQLVESGGGLVQPGGSLRLSCAASGRVYNSWTMAWFRQAPGKEREFVGAFSLLDSGTRYADSLKDRVAISRDDAANTQWLQLSALKPEDTAVYYCAAKSGTIRATSEGQYNYWGQGIQVTVSS
notes: as for B8
Take B9: the EC50 in data set [1] was 3.41 µg/mL.

B10: SDAB22118-189-192-1-E08 (VHH)
VHH: AVQLVESGGGLVQPGGSLRLSCVASGSSSRNYAMGWYRQAPGNEREFVAVITSRGYTHYANSVSGRFTISRDHAKDTAYLQMNSLKPEDTAVYYCNTQAGLLPFMTVYDWGTGTQVTVSS
notes: as for B2
For the molecule B10, the EC50 in data set [2] was 0.00411 µg/mL.

B11: SDAB22118-189-192-1-E10 (VHH)
VHH: AVQLVDSGGGLVQTGGSLRLSCAASGTIFSINRMAWYRQAPGKQRELVASIFFSGGITHYADFVKGRFTISRDNAKNTMYLQMNSLKPEDTAVYYCKGVIAPNYRRTSNFQDYWGQGTQVTVSS
notes: as for B2
As to B11, the EC50 in data set [2] was found to be 0.0427 µg/mL.

B12: SDAB22118-189-192-1-C10 (VHH)
VHH: EVQLVESGGGLVQAGGSLRLSCAASGRTFSEYIMGWFRQAPGKERVFVSTISKSGAITNYADSVQGRFTISRDNAKNTVYLQMNSLKPEDSAVYYCAAGPLLSPAGRQYDYWGQGTQVTVSS
notes: as for B2
For B12, the EC50 in data set [2] was determined as 0.0217 µg/mL.

B13: SDAB22118-2-G01 (VHH)
VHH: AVQLVDSGGGLVQAGDSLRLSCVASGRTFSSYVMGWFRQAPGKERLIVATISKSGSLTHYADSVEGRFTISRDNAKNTVYLQMNSLEPEDTAVYYCTPVSDLTGRRLGSYWGQGTQVTVSS
notes: as for B2
Take B13: the EC50 in data set [2] was found to be 0.0736 µg/mL. For the same molecule, in data set [3] (setting [4]), the Tagg came to 38.93. In data set [3] (setting [5]), the Tm is on record as 43.71.

B14: DAB22110-1-1-C3 (protein)
VHH: QLQLVESGGGLVQPGGSLRLSCEASGFTFKYYTMSWYRQAPGKERELVATITNGDRTNYADSVKGRFTISRDNAKNTLYLQMNSLKPYDTAVYYCNRHLPLLQIWGQGTQVTVSS
Consider B14, for which, in data set [3] (setting [6]), the “Tagg ø (mean)” value came out at 58.93 and the “Tonset ø (mean)” value worked out at 58.06. Besides, the “Tm ø (mean), first melting point (Tm1)” value in data set [3] (Average of two replicates, anti-Fel d1 VHH, in °C (unit assumed)) was found to be 66.50. In data set [3] (Replicate 1), the Tagg came out at 59.02 and the Tonset amounted to 58.17. Moreover, the “Tm, first melting point (Tm1)” value in data set [3] (Replicate 1, in °C (unit assumed)) is on record as 66.50. Also, in data set [3] (Replicate 2), the Tagg is reported as 58.85 and the Tonset was found to be 57.94. For the same molecule, the “Tm, first melting point (Tm1)” value in data set [3] (Replicate 2, in °C (unit assumed)) is recorded as 66.51.

B15: SDAB22118-189-192-1-E09 (VHH)
VHH: EVQLVESGGGLVQPGGSLRLSCAASGTIFLINRMGWYRQAPGKQRELVATSFTSGNSTMYADSVKGRFTISRDNAKKTVYLQMNSLKPEDTAVYYCKARISRRYGNWDDYWGQGTQVTVSS
notes: as for B2
As to B15, in data set [2], the EC50 came to 0.0571 µg/mL.

B16: SDAB22118-3-D01 (VHH)
VHH: QVQLVESGGGLVQAGDSLRLSCAASGRSFSNYVMNWFRQAPGKEREFVAAISRSGRSTFYADSVKGRFTISRDNPKATVYLQMNSLVIEDTAVYFCAAASDITSMRSLAAITSWGQGTQVIVSS
notes: as for B2
Take B16: the EC50 in data set [2] came to 0.429 µg/mL.

B17: SDAB22129-55-35-46-49-1-A03 (VHH)
VHH: QVQLVESGGGLVQAGGSLRLSCAVSGRTVSRNVMGWFRQAPGKEREFVAGIGFSGGSTYYADSVKGRFTISRDNAKNTVYLEMNRLQPEDTAVYYCAAPSLPLLTSDLHDYDYWGQGTQVTVSS
notes: as for B8
In the case of B17, in data set [1], the EC50 turned out to be 0.0291 µg/mL.

B18: SDAB22118-189-192-1-H03 (VHH)
VHH: EVQLVESGGGLVQARGSLRLSCAASGRTFNNYAMGWFRQAPGKEREFVAAIASNTGTTYYAGSVKGRFAISRDNAKNTVDLHMNSLKPEDTAVYYCALGPLRLGWWYDSRPYDYWGQGTQVTVSS
notes: as for B2
Consider B18, for which, in data set [2], the EC50 was 0.0575 µg/mL.

B19: SDAB22118-3-B02 (VHH)
VHH: AVQLVDSGGGLVQPGGSLRLSCAASGRTFSYYAMGWFRQALGKEREFVAASSRTGRVTNYADSVKGRFTISRDNAKNTVYLQMNSLKPEDTAIYYCAADDRFYGGDNPAFYNSWGQGTQVTVSS
notes: as for B2
As for B19, in data set [2], the EC50 came out at 0.00759 µg/mL.

B20: SDAB22118-189-192-1-C05 (VHH)
VHH: QVQLVESGGGGVQAGGSLRLSCVASQSHFGYNVMGWYRQAPGRQRELVATIISSGGTNYADSVKGRFTISRDNAKNTVHLSMDSLNVEDTAVYFCYAKGVWLGREYWGQGTQVTVSS
notes: as for B2
Take B20: the EC50 in data set [2] worked out at 0.0325 µg/mL.

For the origin of these results see patent publication US20240352105A1, “COMPOSITIONS AND METHODS FOR NEUTRALIZING ANTIGENS” (PACAGEN, INC, priority 2023, published 2024).
